# Data published in patent publication US6653127B1, “Single-chain recombinant complexes of hepatitis C virus NS3 protease and NS4A cofactor peptide” (Schering Corporation, priority 1997, dated 2003).
# T1: 5A/5B (P8P8') substrate DTEDVVCC*SMSYTWTG-K
# T1 chain: DTEDVVCCSMYTWTGK
# Biological target: T1, 5A/5B (P8P8') substrate …
Protein,Km,kcat,kcat/Km
NS31-631-NS4A1-54 (non-covalent full-length NS3 protease / NS4A complex) (protein) chain 1: MAPITAYSQQTRGLLGCIITSLTGRDKNQVEGEVQVVSTATQSFLATCVNGVCWTVYHGAGSKTLAGPKGPITQMYTNVDQDLVGWQAPPGARSLTPCTCGSSDLYLVTRHADVIPVRRRGDSRGSLLSPRPVSYLKGSSGGPLLCPSGHAVGIFRAAVCTRGVAKAVDFVPVESMETTMRSPVFTDNSSPPAVPQSFQVAHLHAPTGSGKSTKVPAAYAAQGYKVLVLNPSVAATLGFGAYMSKAHGIDPNIRTGVRTITTGAPVTYSTYGKFLADGGCSGGAYDIIICDECHSTDSTTILGIGTVLDQAETAGARLVVLATATPPGSVTVPHPNIEEVALSNTGEIPFYGKAIPIEAIRGGRHLIFCHSKKKCDELAAKLSGLGINAVAYYRGLDVSVIPTIGDVVVVATDALMTGYTGDFDSVIDCNTCVTQTVDFSLDPTFTIETTTVPQDAVSRSQRRGRTGRGRRGIYRFVTPGERPSGMFDSSVLCECYDAGCAWYELTPAETSVRLRAYLNTPGLPVCQDHLEFWESVFTGLTHIDAHFLSQTKQAGDNFPYLVAYQATVCARAQAPPPSWDQMWKCLIRLKPTLHGPTPLLYRLGAVQNEVTLTHPITKYIMACMSADLEVVT chain 2: STWVLVGGVLAALAAYCLTTGSVVIVGRIILSGRPAIVPDRELLYQEFDEMEEC,20 µM,0.167 s⁻¹,8000 M⁻¹ s⁻¹
His-NS31-181 + NS4A Peptide (non-covalent complex) (protein) chain 1: MAPITAYSQQTRGLLGCIITSLTGRDKNQVEGEVQVVSTATQSFLATCVNGVCWTVYHGAGSKTLAGPKGPITQMYTNVDQDLVGWQAPPGARSLTPCTCGSSDLYLVTRHADVIPVRRRGDSRGSLLSPRPVSYLKGSSGGPLLCPSGHAVGIFRAAVCTRGVAKAVDFVPVESMETTMR chain 2: KKGSVVIVGRIVLSGKPAIIPKK,80 µM,0.05 s⁻¹,500 M⁻¹ s⁻¹
His-NS4A21-32-GSGS-NS33-181 (protein) MGSSHHHHHHSSGLVPRGSHMGSVVIVGRIILSGSGSITAYSQQTRGLLGCIITSLTGRDKNQVEGEVQVVSTATQSFLATCVNGVCWTVYHGAGSKTLAGPKGPITQMYTNVDQDLVGWQAPPGARSLTPCTCGSSDLYLVTRHADVIPVRRRGDSRGSLLSPRPVSYLKGSSGGPLLCPSGHAVGIFRAAVCTRGVAKAVDFVPVESMETTMRS,19 µM,0.15 s⁻¹,8000 M⁻¹ s⁻¹
